Reference: patent publication US20110288005A1

Molecular target: bovine pancreatic trypsin (Sigma T1426) (bovine) (UniProt P00760)
Test: cell-based or functional assay

bovine pancreatic trypsin (Sigma T1426) (bovine), sequence (P00760 24-246): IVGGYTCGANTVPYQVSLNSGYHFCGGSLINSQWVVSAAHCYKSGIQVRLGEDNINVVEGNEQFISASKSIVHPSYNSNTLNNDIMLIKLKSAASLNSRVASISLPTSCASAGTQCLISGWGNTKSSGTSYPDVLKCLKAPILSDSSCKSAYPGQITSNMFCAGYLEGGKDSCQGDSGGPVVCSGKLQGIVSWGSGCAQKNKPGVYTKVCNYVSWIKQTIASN

Substance	% Activity (compared to positive control plasma-derived aaT)	IC50 (µM), equilibrium trypsin inhibition assay
aaT-XTEN_AE288	65%	0.82 µM
aaT-XTEN_AE576	106%	0.5 µM
